Data on four molecules can be found in patent US7063946B2, “Methods, reagents, kits and apparatus for protein function analysis” (Meso Scale Technologies, LLC., priority 2001, dated 2006).

For test [1], the system named is N-end rule pathway ubiquitylation in reticulocyte lysates. The test can be described thus: ECL ubiquitylation assay of EST clone proteins, FK2 antibody coated IPR plate. Type of test: biochemical, rabbit. As for the experimental part: The following EST clones in bacteria were obtained: IMAGE ID #, 3446518, 3446518, 3446518, 3914731 (RGS4), 3914731 (RGS4), 3914731 (RGS4) (Incyte, Palo Alto). Bacteria containing EST clones were grown in 2 ml LB with 50 μg/ml Amp, and DNA was isolated using QIAprep Spin Miniprep Kit (Qiagen). DNA yield was 5–20 μg.
Proteins were prepared from the EST clones in transcription-translation reaction mixtures (total volume 12.5 uL) as described in the Materials and Methods except for the addition of 1 μM Ub aldehyde (Calbiochem). Then 1 μl of the reaction product was mixed with 50 μl of BB1 supplemented with 20 mM AMP-PNP, 20 mM N-ethylmaleimide and 2 μg/ml Sulfo-TAG-labeled streptavidin in to each well of an IPR plate coated with FK2 antibody.
As previously reported, RGS4 is a substrate of the N-end rule-dependent ubiquitylation in reticulocyte lysates (Davydov and Varshavsky, 2000, J. Biol. Chem., 275:22931–22941). To determine if the protein produced from clone 3446518 was similarly ubiquitylated through the N-end rule pathway, the ECL ubiquitylation assay was performed in the presence of dipeptide inhibitors Arg-β-Ala (type 1 inhibitor of the N-end rule pathway), or Trp-Ala (type 2 inhibitor of the same pathway). As was shown on FIG. 2, the RGS4 signal was reduced 3–4 fold in the presence of Arg-β-Ala (a type 1 inhibitor of the N-end rule pathway), but not in the presence of Trp-Ala (a type 2 inhibitor of the N-end rule pathway) in agreement with the previous report that RGS4 is a type 1 N-end rule substrate in reticulocyte lysates (Davydov and Varshavsky, 2000, J. Biol. Chem., 275:22931–22941). In contrast, the dipeptides had little effect on the assay signal from clone 3446518 (FIG. 2). Thus, a different pathway of the ubiquitin system mediates ubiquitylation of the protein produced from clone 3446518.

Test [2] concerns ubiquitylation in reticulocyte lysates. The test can be described thus: 96-well screen of EST clones: ubiquitylation assay, FK2 antibody coated plate. The format is biochemical, rabbit. As for the experimental part: Transcription-translation reactions were assembled in a 96-well plate as described in Materials and Method in a total volume of 19 μl. The amounts of DNA in each reaction varied depending on DNA yields at purification stage, while the four positive control wells contained reactions with 20 μg/ml plasmid DNA. The reactions were incubated at 30° C. for 40 min.
After incubation, 1 μl of the TNT reaction was mixed with 50 μl of BB1 in an IPR plate coated with FK2 antibody (750 ng antibody per well) (see Materials and Methods).

For a further test, the system named is pEY (poly Glu-Tyr). The test can be described thus: Tyrosine kinase activity assay of immobilized in vitro translated protein towards pEY. Type of test: biochemical. How it is done: Proteins were produced in an in vitro transcription and translation reaction. […] The unbound components of the reaction containing endogenous kinases were removed by three washes with TT-buffer (25 mM Tris-HCl buffer pH 7.4 and 0.004% Triton), two five minutes washings with high-salt wash buffer (25 mM Tris-HCl buffer pH 7.4, 0.004% Triton, 1M NaCl and 5 mM DTT) and 3 more washes with TT-buffer. To these immobilized and purified proteins a tyrosine kinase substrate, 5 nM pEY (poly Glu-Tyr, Sigma, MO), was added in a 50 μl reaction solution containing 5 mM MgCl2, 5 mM MnCl2, 100 μM ATP, 25 mM Tris-HCl buffer pH 7.4, 0.05 mM Na3VO4, 0.004% TritonX-100, 2 mM DTT and EDTA-free protease inhibitor (Roche Molecular Biochemicals). This mixture was incubated with shaking at room temperature overnight to allow phosphorylation of the pEY substrate by the immobilized kinases. Following this incubation, 45 μl of this mixture was transferred to a streptavidin or avidin-coated NPT IPR plate coated with biotinylated anti-phosphotyrosine antibody (PY20, Zymed labs, CA) followed by incubation for 30 minutes at room temperature to allow the binding of the phosphorylated pEY substrate to the PY20 coated NPT plate. Following this binding step, 50 ng Sulfo-TAG labeled anti-phosphotyrosine in buffer containing 25 mM Tris-HCl buffer pH 7.4, 5 mM MgCl2, 0.05 mM Na3VO4, 0.004% TritonX-100, 2 mM DTT and 0.05% IgG was added followed by incubation at room temperature for 30 mm. The unbound reagents were removed by one time washing with water, and the TAG label was detected in presence of 150 μl IPR assay buffer (0.4 mM Gly-Gly buffer, pH 7.8, 1 mM EDTA, 0.1 M TPA). The ECL signals were measured using an imaging plate reader.

In another test the test system is pEY. The test can be described thus: In vitro kinase library screen: activity towards pEY. To be noted: 5 ul of expressed protein. Type of test: biochemical. The gist of the method: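 ECL read-out: phosphorylated poly(Glu-Tyr) bound on a PY20-coated plate, then probed with Sulfo-TAG-labelled anti-phosphotyrosine. The reaction beforehand ran overnight at room temperature with 100 µM ATP, 5 mM MgCl2, 5 mM MnCl2 and 5 nM pEY substrate. Enzymes were TnT-expressed, biotinylated and immobilised, with stringent washes.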

Test [3] relates to autophosphorylation (phosphotyrosine). The test can be described thus: In vitro kinase library screen: autophosphorylation. The format is biochemical. The method in brief:
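ECL read-out after 45 min with Sulfo-TAG anti-phosphotyrosine antibody. Before that, immobilized in vitro-translated biotinylated SYK or EphA7 autophosphorylated overnight at room temperature in Tris pH 7.4 containing 100 μM ATP plus Mn++ and Mg++ (5 mM each).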

B1: 3912628: IMAGE clone protein: RGS4 (protein, UniProt P49798 1-205, looked up)
Regulator of G-protein …: MCKGLAGLPASCLRSAKDMKHRLGFLLQKSDSCEHNSSHNKKDKVVICQRVSQEEVKKWAESLENLISHECGLAAFKAFLKSEYSEENIDFWISCEEYKKIKSPSKLSPKAKKIYNEFISVQATKEVNLDSCTREETSRNMLEPTITCFDEAQKKIFNLMEKDSYRRFLKSRFYLDLVNPSSCGAEKQKGAKSSADCASLVPQCA
B1: the “signal in ubiquitylation assay (in words)” value (“signal … (in words)” for short) in test [1] is “strong specific signal”. For the same molecule, in test [2], the “signal in ubiquylation screen (FIG. 2, in words)” value (“signal in ubiquylation screen” below) is recorded as “strong specific signal”.

B2: 3920860: IMAGE clone protein: RGS4 (protein, UniProt P49798 1-205, looked up)
Regulator of G-protein …: B1 Regulator of G-protein …
As to B2, the “signal … (in words)” value in test [1] is given as “strong specific signal”. Moreover, the “signal in ubiquylation screen” value in test [2] was “strong specific signal”.

B3: 3914731: IMAGE clone protein: RGS4 (protein, UniProt P49798 1-205, looked up)
Regulator of G-protein …: B1 Regulator of G-protein …
On to B3, for which the “signal … (in words)” value in test [1] was “strong specific signal”. For the same molecule, in test [1] (no dipeptide inhibitor), the “ECL readings, Experiment 1” value stood at 41670; the “ECL readings, Experiment 2” value was determined as 43729; the “ECL readings, Experiment 3” value is 41806. In test [2], the “signal in ubiquylation screen” value is reported as “strong specific signal”.

B4: 4485050: IMAGE clone protein: Fert2, fer (fms/fps related) protein kinase, testis specific 2 (protein, UniProt P70451 1-823, looked up)
Tyrosine-protein kinase Fer: MGFGSDLKNSQEAVLKLQDWELRLLETVKKFMALRIKSDKEYAYTLQNLCNQVDKESTVQVNYVSNVSKSWLLMIQQTEQLSRIMKTHAEDLNSGPLHRLTMMIKDKQQVKKSYVGIHQQIEAEMIKVTKTELEKLKSSYRQLIKEMNSAKEKYKEALAKGKETEKAKERYDKATMKLHMLHNQYVLALKGAQLHQSQYYDTTLPLLLDSVQKMQEEMIKALKGIFDDYSQITSLVTEEIVNVHKEIQMSVEQIDPSTEYNNFIDVHRTTAAKEQEIEFDTSLLEENENLQANEIMWNNLTADSLQVMLKTLAEELTQTQQMLLHKEAAVLELEKRIEESFETCEKKSDIVLLLGQKQALEELKQSVQQLRCTEAKCAAQKALLEQKVQENDGKEPPPVVNYEEDARSVTSMERKERLSKFESIRHSIAGIIKSPKSVLGSSTQVCDVISVGERPLAEHDWYHGAIPRIEAQELLKQQGDFLVRESHGKPGEYVLSVYSDGQRRHFIIQFVDNLYRFEGTGFSNIPQLIDHHFNTKQVITKKSGVVLLNPIPKDKKWVLNHEDVSLGELLGKGNFGEVYKGTLKDKTPVAIKTCKEDLPQELKIKFLQEAKILKQYDHPNIVKLIGVCTQRQPVYIIMELVPGGDFLTFLRKRKDELKLKQLVRFSLDVAAGMLYLESKNCIHRDLAARNCLVGENNTLKISDFGMSRQEDGGVYSSSGLKQIPIKWTAPEALNYGRYSSESDVWSFGILLWETFSLGVCPYPGMTNQQAREQVERGYRMSAPQNCPEEVFTIMMKCWDYKPENRPKFNDLHKELTVIKKMIT
Regarding B4, the “fold higher ECL signal than background produced by Mock (Luciferase)” value in the test on pEY (poly Glu-Tyr) (0.5 to 1 μl of TnT reaction) is 1000 to 1100 fold. Also, the ECL signal is 1,287 in the test on pEY (poly Glu-Tyr) (+EDTA); 1,637,307 in the test with pEY (poly Glu-Tyr) (Control (Table 9)); 4,432 with pEY (poly Glu-Tyr) (DNA 0.001 μg/5 μl); 129,797 in the test on pEY (poly Glu-Tyr) (DNA 0.003 μg/5 μl); 1,440,103 with pEY (poly Glu-Tyr) (DNA 0.010 μg/5 μl); 1,463,489 with pEY (poly Glu-Tyr) (DNA 0.020 μg/5 μl). In addition, the ECL signal was 1,523,121 in the test with pEY (poly Glu-Tyr) (DNA 0.040 μg/5 μl); 1,553,370 in the test with pEY (poly Glu-Tyr) (DNA 0.060 μg/5 μl); 1,608,671 in the test on pEY (poly Glu-Tyr) (DNA 0.080 μg/5 μl); 1,687,039 with pEY (poly Glu-Tyr) (DNA 0.100 μg/5 μl); 1,626,868 with pEY (poly Glu-Tyr) (DNA 0.125 μg/5 μl); 1,608,671 with pEY (poly Glu-Tyr) (complete reaction). The ECL signal with pEY (poly Glu-Tyr) (no Mg, no Mn) is recorded as 2,851; in the test with pEY (poly Glu-Tyr) (plasmid +, no pEY) it was 1,309; with pEY (poly Glu-Tyr) (plasmid +, no tRNA) it was 1,752; in test [3] it was 1,350,546. For the same molecule, the HTS signal in the test with pEY was 952,661.
